Results from US11130801B2, “Method for inhibiting platelet derived growth factor signaling with C3aR or C5aR antibodies” (CASE WESTERN RESERVE UNIVERSITY, priority 2011, dated 2021).

Legend:
[1] = tested on: Raji, Jurkat, U937 cells, primary mΦs, B cells, and DCs; test: AP and C5 gene transcription in leukocytes by qPCR; format: cell-based; details: 10 nM C5a
Description: ECs and leukocytes locally synthesize C3/fB/fD/C5 and the elicited C3a/C5a signal through C3aR/C5aR on the same cells to amplify this synthesis. To determine whether ECs locally synthesize AP complement components, we added IL-1/IFN-γ/TNF-α to HUVEC, 1 hr after which we quantified C3 and fB transcripts by qPCR. […] To test whether leukocytes that are recruited to sites of EC injury locally synthesize AP components and C5a similarly feeds back in them to amplify local complement production, we stimulated Raji, Jurkat, U937 cells, primary mΦs, B cells, and DCs with 10 nM C5a. This documented induction of AP and C5 gene transcription by qPCR.

C5aR = test: Proinflammatory gene transcription induced by C5aR signaling; format: cell-based; details: added C5a
Description: In view of the connections of MCP-1 and other proinflammatory cytokines with atherosclerosis and the mechanistic linkage of DAF deficiency with potentiated C3aR/C5aR transduction, we tested whether C5aR signaling induces proinflammatory gene transcription. Added C5a induced the mRNA transcription of chemotactic MCP-1/IL-8, proinflammatory IL-1β/IL-6 and growth inductive GM-CSF.

NIH-3T3 cells = test: Cell cycle assay of serum starved NIH-3T3 cells (PDGF study); format: cell-based; details: identical to adding PDGF
Method: (§1) Propidium iodide staining was performed as described previously […]. In brief, the cells were serum starved for 24 hrs followed by administration of 1 μM colchicine (Sigma). 16 hrs following colchicine treatment, cells were given either growth factor treatment or 17 ng/mL mC5a. After an additional 24 hrs, cells were removed from plating via Trypsin/EDTA and fixed in 0.25% Formaldehyde for 10 mins at 37° C. Cells were spun out of formaldehyde solution and resuspended in 90% methanol at 4° C. until assayed. Following removal from methanol, excess RNA was removed via treatment with RNase (Sigma) and stained with propidium iodide for 30 mins at 4° C. Cells were analyzed on an Epics XL.
PDGF contributes to atherogenesis and plays a central role in neointimal proliferation following EC injury. […] Following determination of optimal PDGF-AA doses, we incubated 1×10^5 cells/well in triplicate with 30 ng/ml of PDGF-AA±10 ng/ml of C3aR and C5aR antagonists (C3aR-A/C5aR-A), 10 ng/ml of anti-C3a/anti-C5a mAbs or respective controls, after which we quantified cell growth by counting cell numbers over time. […] To directly establish whether C5aR signals augment PDGF-AA growth signaling, we 1) quantified the effect of added C5a one growth, and 2) assayed C5a in culture supernatants of PDGF-AA treated cells. […]

[2] = tested on: NIH-3T3 cells, bEND.3 ECs, TC-1 cancer cells; test: Cell cycle assay (propidium iodide staining) of serum starved cells; format: cell-based; details: C5a added to serum starved cells; identical to EGF or VEGF-A
Method: Because this dependence of growth factor responsiveness on C3aR/C5aR signaling could be indirect, i.e., a consequence of its requirement for viability, we performed cell cycle assays.
as §1

HUVEC [3] = test: Complement mRNA transcripts in HUVEC by qPCR; format: cell-based; details: added C3a or C5a
Method: FIG. 33 illustrates charts showing qRT-PCR analysis of C3, factor B and factor D transcripts from HUVEC under hypoxia. A) HUVEC treated with TNF-α, IL-1, and IFN-γ. Blue bars represent samples after treatment. B-C) HUVEC stimulated with C3a (10 ng/ml for 2 hr) or C5a (10 ng/ml for 30 min) Blue bars represent control without C3a/C5a stimulation while red bars represent samples after stimulation. D) HUVEC incubated for 1 hr with FCCP+IAA. Blue bars represent control without hypoxia treatment while yellow bars represent two samples after hypoxia treatment.
We next conversely assessed how transducing C3aR/C5aR signals into ECs affects endogenous EC complement production and whether it is connected with “classical” EC responses. We incubated HUVEC with 1) inflammatory cytokines, 2) the mitochondrial uncoupler protonophore carbonyl cyanide p-(trifluoromethoxy)phenylhydrazone (FCCP)+iodoacetate (IAA) (which mimics hypoxia), or 3) C3a or C5a, after which we assayed complement mRNA transcripts by qPCR. […]
ECs and leukocytes locally synthesize C3/fB/fD/C5 and the elicited C3a/C5a signal through C3aR/C5aR on the same cells to amplify this synthesis. To determine whether ECs locally synthesize AP complement components, we added IL-1/IFN-γ/TNF-α to HUVEC, 1 hr after which we quantified C3 and fB transcripts by qPCR. […]

NIH-3T3 fibroblasts = test: PDGF-AA growth induction of NIH-3T3 fibroblasts (cell counts over time); format: cell-based; details: added C5a by itself
Method: PDGF contributes to atherogenesis and plays a central role in neointimal proliferation following EC injury. In view of the growth difference of primary cultured Daf1^−/−, WT, C3aR^−/−C5aR^−/−, and C3^−/−C5^−/−SMCs, we examined whether C3aR/C5aR signals are interconnected with PDGF growth induction. For these studies, we utilized NIH-3T3 fibroblasts (which express PDGFR-αα) in conjunction with PDGF-AA. Following determination of optimal PDGF-AA doses, we incubated 1×10^5 cells/well in triplicate with 30 ng/ml of PDGF-AA±10 ng/ml of C3aR and C5aR antagonists (C3aR-A/C5aR-A), 10 ng/ml of anti-C3a/anti-C5a mAbs or respective controls, after which we quantified cell growth by counting cell numbers over time. […] To directly establish whether C5aR signals augment PDGF-AA growth signaling, we 1) quantified the effect of added C5a one growth, and 2) assayed C5a in culture supernatants of PDGF-AA treated cells. […] Because the dependence of PDGF growth induction on C3aR/C5aR signaling could be indirect, i.e., a consequence of its requirement for viability, we performed cell cycle assays.

HUVEC [4] = test: Cell cycle assay of serum starved HUVEC; format: cell-based; details: identical to adding VEGF-A
Method: as §1
Because the disruptive effect of C3aR/C5aR antagonism on VEGF growth induction could be a consequence of the requirement of autocrine C3aR/C5aR signaling for EC viability, we performed cell cycle assays. […] These findings that autocrine C3aR/C5aR signaling not only prevents EC apoptosis but drives EC growth point to a bidirectional signaling mechanism wherein C3aR/C5aR GPCR signaling transactivates to VEGFR2 signaling and vice versa.

VEGFR2 = VEGFR2 phosphorylation immunoblot in serum starved primary WT aortic ECs; format: cell-based, murine; details: added C5a, relative to untreated controls
Method: FIG. 21 illustrates an immunoblot of VEGFR2 phosphorylation. C5a or VEGF-A was added to serum starved primary cultures of WT murine ECs in the absence or presence of C3aR-A/C5aR-A and VEGFR2 phosphorylation assessed by immunoblotting with anti […] mAb.
To directly establish whether C3aR/C5aR signaling is integral to VEGF signaling, we next evaluated phosphorylation of VEGFR2. We tested 1) how adding C5a to primary WT ECs affects VEGFR2 autophosphorylation and 2) whether VEGFR2 phosphorylation induced by added VEGF-A is affected by antagonizing C3aR/C5aR signaling. We incubated serum starved WT aortic ECs with C5a or with VEGF-A in the absence or presence of C3aR-A/C5aR-A, after which we probed immunoblots of protein lysates and anti-pVEGFR2^Y1054/1059 mAb or pan VEGFR2 antibody.

B1: C5a: complement activation fragment (anaphylatoxin) added to cells (protein, UniProt P01031 678-751, looked up)
C5a anaphylatoxin: TLQKKIEEIAAKYKHSVVKKCCYDGACVNNDETCEQRAARISLGPRCIKAFTECCVVASQLRANISHKDMQLGR
modifications: C5a anaphylatoxin
- AP and C5 gene transcription [1]: induction
- mRNA transcription of MCP-1/IL-8, IL-1β/IL-6 and GM-CSF (C5aR): induced
- cell cycle transition after adding C5a (NIH-3T3 cells): transition from G0 into G2
- cell cycle transition after adding C5a [2]: transition from G0 into G2
- production of AP components by ECs (HUVEC [3]): more AP components
- transcription of C3 (HUVEC [3]): increased
- proliferation of NIH-3T3 cells (NIH-3T3 fibroblasts): induced proliferation
- cell cycle transition after adding C5a (HUVEC [4]): transition from G0 into G2
- VEGFR2 Y1054/1059 phosphorylation (VEGFR2): increased
